Changes are numbered by the printed parent chain. Numbers in names are those of the source. Where “and” joins values, the source holds several entries; their conditions need not be identical. Identical values can stand only once. Like-named read-outs stand apart in the source and are kept apart here. Each block holds one binder with its values, some of them ahead of it.
Columns and labels:
cyno TfR ECD [1] = target: T1, cyno TfR ECD (cynomolgus); assay: SPR
T1 chain: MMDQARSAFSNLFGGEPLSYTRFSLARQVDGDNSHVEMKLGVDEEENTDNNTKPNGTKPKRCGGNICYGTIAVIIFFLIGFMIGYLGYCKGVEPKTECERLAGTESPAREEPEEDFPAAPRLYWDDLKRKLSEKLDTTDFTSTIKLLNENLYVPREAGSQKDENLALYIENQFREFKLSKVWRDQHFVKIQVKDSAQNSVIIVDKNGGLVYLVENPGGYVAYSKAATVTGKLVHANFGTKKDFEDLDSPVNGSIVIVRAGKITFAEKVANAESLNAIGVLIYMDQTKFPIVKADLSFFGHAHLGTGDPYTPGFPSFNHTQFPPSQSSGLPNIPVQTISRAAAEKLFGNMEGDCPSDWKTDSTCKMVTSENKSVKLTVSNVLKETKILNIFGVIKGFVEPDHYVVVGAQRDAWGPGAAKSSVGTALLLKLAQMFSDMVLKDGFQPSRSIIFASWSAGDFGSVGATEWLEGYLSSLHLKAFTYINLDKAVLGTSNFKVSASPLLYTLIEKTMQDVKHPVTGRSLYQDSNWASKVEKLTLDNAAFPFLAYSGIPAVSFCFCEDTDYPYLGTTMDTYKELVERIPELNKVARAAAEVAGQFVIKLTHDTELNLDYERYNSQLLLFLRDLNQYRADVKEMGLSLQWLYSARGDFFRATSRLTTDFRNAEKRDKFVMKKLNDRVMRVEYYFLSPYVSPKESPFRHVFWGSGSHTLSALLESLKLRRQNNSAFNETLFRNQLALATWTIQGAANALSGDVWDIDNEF

human TfR ECD [2] = target: human TfR ECD (human); assay: SPR
cyno FcRn = target: T2, cyno FcRn (cynomolgus, UniProt Q8SPV9); assay: SPR, pH 6.0
T2 chain 1: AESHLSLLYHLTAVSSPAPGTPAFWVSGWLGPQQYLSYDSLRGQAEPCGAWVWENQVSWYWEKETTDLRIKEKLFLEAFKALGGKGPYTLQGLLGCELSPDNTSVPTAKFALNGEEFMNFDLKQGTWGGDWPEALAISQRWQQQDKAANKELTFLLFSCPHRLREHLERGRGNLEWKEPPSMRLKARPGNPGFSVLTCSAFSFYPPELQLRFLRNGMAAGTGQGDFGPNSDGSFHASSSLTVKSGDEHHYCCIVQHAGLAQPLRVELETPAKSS
T2 chain 2: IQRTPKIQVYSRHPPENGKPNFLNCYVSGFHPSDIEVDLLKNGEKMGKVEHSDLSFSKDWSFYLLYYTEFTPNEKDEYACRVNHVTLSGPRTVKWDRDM

human FcRn = human FcRn (human, UniProt P55899); assay: SPR, pH 6.0
human TfR ECD [3] = target: human TfR ECD (human); assay: SPR; remark: listed apart in the source
cyno TfR ECD [4] = target: T1, cyno TfR ECD; assay: SPR
cyno TfR ECD [5] = target: T1, cyno TfR ECD; assay: SPR
cyno TfR ECD [6] = target: T1, cyno TfR ECD; assay: SPR
human TfR ECD [7] = target: human TfR ECD (human); assay: SPR; remark: listed apart in the source
human TfR ECD [8] = target: human TfR ECD (human); assay: SPR; remark: listed apart in the source

Kd (cyno TfR ECD [1]): 24.7 nM
Kd (human TfR ECD [2]): 1.29 nM
B1: Hu16F6.v4 Fab (antibody, V domains shown)
VH: EVQLVESGPGLVKPSETLSLTCTVSGNSITSEYAWNWIRQPPGKGLEWIGYISYSGTTSYNPSLKSRVTISRDTSKNQLSLKLSSVTAADTAVYYCARYGYGNPATRYFDVWGQGTLVTVSS
VL: DIQMTQSPSSLSASVGDRVTITCRASKSISKYLAWYQQKPGKTNKLLLYSGSTLQSGVPSRFSGSGSGTDYTLTISSLQPEDFATYYCQQHNEYPWTFGQGTKVEIK

Kd (cyno TfR ECD [1]): 4.28 nM
Kd (human TfR ECD [2]): 0.348 nM
B2: Hu7A4.v15 Fab (antibody, V domains shown)
VH: EVQLVQSGAEVKKPGASVKVSCKGSGYTFTDYAMHWVRQAPGQGLEWMGGISTYFGRTNYNQKFKGRVTMTVDTSISTAYMELSRLRSDDTAVYYCARGLSGNYVMDYWGQGTTVTVSS
VL: DIVMTQSPDSLAVSLGERATINCRASESVDSYGNSFMHWYQQKPGQPPKLLIYRASNLESGVPDRFSGSGSRTDFTLTISSLQAEDVAVYYCQQSNEAPPTFGQGTKLEIK

Kd (cyno TfR ECD [1]): 188 nM
Kd (human TfR ECD [2]): 45.8 nM
B3: Hu7G7.v1 Fab (antibody, V domains shown)
VH: EVQLVQSGAEVKKPGASVKVSCKASGYTFTSYWMHWVRQAPGQGLEWIGNIYPGSGSTKYDERFKSRVTITVDTSTSTAYLELSSLRSEDTAVYYCTRGGYDSRAWFAYWGQGTLVTVSS
VL: DIVMTQSPDSLAVSLGERATINCRARQSVSTSSYSFMHWYQQPAGQPPKLLIKYASIQESGVPDRFSGSGSGTDFTLTISSLQAEDVAVYYCQHTWEIPFTFGQGTKVEIK

Kd (cyno TfR ECD [1]): 0.741 nM
Kd (human TfR ECD [2]): 0.19 nM
B4: Mu7A4 Fab (antibody, V domains shown)
VH: QVQLQQSGPELVRPGVSVKISCKGSGYTFTDYAMHWVKQSHAKSLEWIGGISTYFGRTNYNQKFKGRATMTVDKSSSTAYMELARLTSEDSALYYCARGLSGNYVMDYWGQGTSVTVSS
VL: DIVLTQSPASLAVSLGQRATISCRASESVDSYGNSFMHWYQQKPGQPPKLLIYRASNLESGIPARFSGSGSRTDFTLTINPVEADDVATYYCQQSNEGPPTFGGGTKLEIK

Kd (cyno FcRn): 200 nM
Kd (human FcRn): 300 nM
B5: Anti-TfR2/6266.hIgG1.LALAPG.YTE (antibody)
chain 1: EVQLVQSGAEVKKPGASVKVSCKASGYTFTSYWMHWVRQAPGQRLEWIGEINPTNGRTNYIEKFKSRATLTVDKSASTAYMELSSLRSEDTAVYYCARGTRAYHYWGQGTMVTVSSASTKGPSVFPLAPSSKSTSGGTAALGCLVKDYFPEPVTVSWNSGALTSGVHTFPAVLQSSGLYSLSSVVTVPSSSLGTQTYICNVNHKPSNTKVDKKVEPKSCDKTHTCPPCPAPEAAGGPSVFLFPPKPKDTLYITREPEVTCVVVDVSHEDPEVKFNWYVDGVEVHNAKTKPREEQYNSTYRVVSVLTVLHQDWLNGKEYKCKVSNKALGAPIEKTISKAKGQPREPQVYTLPPSREEMTKNQVSLSCAVKGFYPSDIAVEWESNGQPENNYKTTPPVLDSDGSFFLVSKLTVDKSRWQQGNVFSCSVMHEALHNHYTQKSLSLSPGK
chain 2: DIQMTQSPSSLSASVGDRVTITCRASDNLYSNLAWYQQKPGKSPKLLVYDATNLADGVPSRFSGSGSGTDYTLTISSLQPEDFATYYCQHFAGTPLTFGQGTKVEIKRTVAAPSVFIFPPSDEQLKSGTASVVCLLNNFYPREAKVQWKVDNALQSGNSQESVTEQDSKDSTYSLSSTLTLSKADYEKHKVYACEVTHQGLSSPVTKSFNRGEC
chain 3: not shown
chain 4: not shown

Kd (cyno FcRn): 1200 nM
Kd (human FcRn): 800 nM
B6: Anti-TfR.52A/6266.hIgG1.LALAPG (antibody)
chain 1: B5 chain 1 with N52A, Y251M, T253S, E255T
chain 2: B5 chain 2 with A92W
chain 3: not shown
chain 4: not shown

Kd (cyno FcRn): 1200 nM
Kd (human FcRn): 1100 nM
B7: Anti-TfR2/6266.hIgG1.LALAPG (antibody)
chain 1: B5 chain 1 with Y251M, T253S, E255T
chain 2: B5 chain 2
chain 3: not shown
chain 4: not shown

Kd (cyno FcRn): 200 nM
Kd (human FcRn): 200 nM
B8: Anti-TfR.52A/6266.hIgG1.LALAPG.YTE (antibody)
chain 1: B5 chain 1 with N52A
chain 2: B5 chain 2 with A92W
chain 3: not shown
chain 4: not shown

Kd (cyno TfR ECD [1]): 26.8 nM
Kd (human TfR ECD [2]): 3.13 nM
B9: Mu16F6 Fab (antibody, V domains shown)
VH: DVQLQESGPGLVKPSQSLSLTCTVTGNSITSEYAWNWIRQFPGNKLEWMGYISYSGTTSYNPSLKSRISITRDTSKNQLFLQLNSVTTEDTATYFCARYGYGNPATRYFDVWGAGTTVTVSS
VL: DVQITQSPSYLTASPGETITINCRASKSISKYLAWYQEKPGKTNKLLIYSGSTLQSGIPSRFSGSGSGTDFTLTISNLEPEDFAMYYCQQHNEYPWTFGGGTKLEIK

Kd (cyno TfR ECD [1]): 5.81 nM and 7.57 nM
Kd (human TfR ECD [2]): 3.37 nM
B10: Mu15G11 Fab (antibody, V domains shown)
VH: QVQLQQPGAELVKPGASVKLSCKASGYTFTSYWMHWVKQRPGQGLEWIGEINPTNGRTNYIEKFKSKATLTVDKSSSTAYMQLSSLTSEDSAVYYCARGTRAYHYWGQGTSVTVSS
VL: DIQMTQSPASLSVSVGETVTITCRASDNLYSNLAWYQQKQGKSPQLLVYDATNLADGVPSRFSGSGSGTQYSLKINSLQSEDFGTYYCQHFWGTPLTFGAGTKLELK

Kd (human TfR ECD [3]): 7.14 nM
Kd (cyno TfR ECD [4]): 32.6 nM
B11: Hu15G11.HC34A Fab (antibody, V domains shown)
VH: EVQLVQSGAEVKKPGASVKVSCKASGYTFTSYWAHWVRQAPGQRLEWIGEINPTNGRTNYIEKFKSRATLTVDKSASTAYMELSSLRSEDTAVYYCARGTRAYHYWGQGTMVTVSS
VL: DIQMTQSPSSLSASVGDRVTITCRASDNLYSNLAWYQQKPGKSPKLLVYDATNLADGVPSRFSGSGSGTDYTLTISSLQPEDFATYYCQHFWGTPLTFGQGTKVEIK

Kd (human TfR ECD [3]): 23.9 nM
Kd (cyno TfR ECD [4]): 105 nM
B12: Hu15G11.HC51A Fab (antibody, V domains shown)
VH: B11 VH with A34M, I51A
VL: B11 VL

Kd (cyno TfR ECD [5]): 1650 nM
B13: Anti-TfR2/6266.hIgG1.LALAPG.YTE, TfR arm (antibody, V domains shown)
VH: B11 VH with A34M
VL: DIQMTQSPSSLSASVGDRVTITCRASDNLYSNLAWYQQKPGKSPKLLVYDATNLADGVPSRFSGSGSGTDYTLTISSLQPEDFATYYCQHFAGTPLTFGQGTKVEIKR

Kd (human TfR ECD [3]): 12.9 nM
Kd (cyno TfR ECD [4]): 51.8 nM
B14: Hu15G11.HC53A Fab (antibody, V domains shown)
VH: B11 VH with A34M, T54A
VL: B11 VL

Kd (human TfR ECD [3]): 7.47 nM
B15: Hu15G11.HC32A Fab (antibody, V domains shown)
VH: B11 VH with Y32A, A34M
VL: B11 VL

Kd (cyno TfR ECD [6]): 622 nM
Kd (human TfR ECD [7]): 295 nM
B16: Hu15G11.W92A bispecific, TfR arm (antibody, V domains shown)
VH: B11 VH with A34M
VL: B11 VL with W92A

Kd (cyno TfR ECD [1]): 15.6 nM
Kd (cyno TfR ECD [6]): 28.2 nM
Kd (human TfR ECD [7]): 7.03 nM
Kd (human TfR ECD [3]): 7.03 nM
Kd (cyno TfR ECD [4]): 28.2 nM
Kd (human TfR ECD [2]): 4.7 nM and 8.91 nM
B17: Hu15G11.v5 Fab (antibody, V domains shown)
VH: B11 VH with A34M
VL: B11 VL

Kd (human TfR ECD [8]): 55 nM
Kd (human TfR ECD [3]): 34.6 nM and 44.4 nM
Kd (cyno TfR ECD [4]): 117 nM
B18: Hu15G11.HC52A Fab (antiTfR.52A.Fab) (antibody, V domains shown)
VH: B11 VH with A34M, N52A
VL: B11 VL

Kd (human TfR ECD [8]): 72.2 nM
B19: antiTfR.52A.M108L.Fab (antibody, V domains shown)
VH: B11 VH with A34M, N52A, M111L
VL: B11 VL

Reference: patent publication US11008403 (dated 2021)
